This note sets out measurements from IntAct's records for PubMed 12819209.

First the molecules themselves.
B1: Prolactin receptor (Homo sapiens), P16471 (parent)
chain: MKENVASATVFTLLLFLNTCLLNGQLPPGKPEIFKCRSPNKETFTCWWRPGTDGGLPTNYSLTYHREGETLMHECPDYITGGPNSCHFGKQYTSMWRTYIMMVNATNQMGSSFSDELYVDVTYIVQPDPPLELAVEVKQPEDRKPYLWIKWSPPTLIDLKTGWFTLLYEIRLKPEKAAEWEIHFAGQQTEFKILSLHPGQKYLVQVRCKPDHGYWSAWSPATFIQIPSDFTMNDTTVWISVAVLSAVICLIIVWAVALKGYSMVTCIFPPVPGPKIKGFDAHLLEKGKSEELLSALGCQDFPPTSDYEDLLVEYLEVDDSEDQHLMSVHSKEHPSQGMKPTYLDPDTDSGRGSCDSPSLLSEKCEEPQANPSTFYDPEVIEKPENPETTHTWDPQCISMEGKIPYFHAGGSKCSTWPLPQPSQHNPRSSYHNITDVCELAVGPAGAPATLLNEAGKDALKSSQTIKSREEGKATQQREVESFHSETDQDTPWLLPQEKTPFGSAKPLDYVEIHKVNKDGALSLLPKQRENSGKPKKPGTPENNKEYAKVSGVMDNNILVLVPDPHAKNVACFEESAKEAPPSLEQNQAEKALANFTATSSKCRLQLGGLDYLDPACFTHSFH

Variants of B1 are the subject of this assay. The settings on record: with 1433z_human YWHAZ.
As for C413A;S414A;T415A, the “effect of a mutation on the interaction” value is given as “decreasing interaction strength”.
T415A: the “effect of a mutation on the interaction” value is recorded as “decreasing interaction strength”.
